# In publication PMC4994864:
# T1: His-yTop3 (Saccharomyces cerevisiae, UniProt P13099 1-656)
# T1 sequence: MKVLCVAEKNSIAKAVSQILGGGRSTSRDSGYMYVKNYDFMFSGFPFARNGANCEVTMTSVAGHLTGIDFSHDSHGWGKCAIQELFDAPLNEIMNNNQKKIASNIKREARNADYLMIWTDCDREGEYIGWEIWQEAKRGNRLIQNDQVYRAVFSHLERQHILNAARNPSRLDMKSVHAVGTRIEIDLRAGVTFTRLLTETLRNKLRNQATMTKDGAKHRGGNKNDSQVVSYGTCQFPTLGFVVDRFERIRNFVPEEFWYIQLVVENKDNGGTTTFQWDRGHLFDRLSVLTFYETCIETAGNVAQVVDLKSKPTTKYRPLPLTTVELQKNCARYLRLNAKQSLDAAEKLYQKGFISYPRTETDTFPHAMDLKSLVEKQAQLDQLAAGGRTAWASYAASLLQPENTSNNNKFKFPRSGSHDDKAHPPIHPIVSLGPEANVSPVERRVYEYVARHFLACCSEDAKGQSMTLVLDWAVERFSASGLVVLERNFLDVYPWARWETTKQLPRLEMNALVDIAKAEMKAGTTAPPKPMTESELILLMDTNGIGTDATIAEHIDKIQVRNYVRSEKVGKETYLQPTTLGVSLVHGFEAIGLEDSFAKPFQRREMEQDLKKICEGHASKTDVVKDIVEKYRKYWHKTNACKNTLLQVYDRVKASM
# B1: 128-nt circular RNA topoisomerase substrate (structured_RNA)
# RNA: GGGAGAUUUUUUUUUUUUUUUUUUUUGUCAGACGGAUCUUUUUUUUUUUUUUUUUUUUUCUCCCGACUGGUUUUUUUUUUUUUUUUUUUUGAUCCGUCUGACUUUUUUUUUUUUUUUUUUUUCCAGUC
# modifications: circularised with T4 RNA ligase (5' end joined to 3' end)
# Target: T1, His-yTop3
# Assay: EMSA; gel-shift band at 50 nM protein in the RNA topoisomerase reaction; abolished by phenol-chloroform; RNA topoisomerase reaction mixture; buffer, salt, pH and temperature not given in the material
binder,measurement,value
B1,binding result,binds
